Measurements taken from patent US20150017651A1 (University of Texas, published 2015).

Target: T1, flag-tagged Gli1S84E (human, UniProt P08151 1-1106)
T1 construct: not shown: flag tag from vector p3flag-CMV10
T1 sequence (looked up): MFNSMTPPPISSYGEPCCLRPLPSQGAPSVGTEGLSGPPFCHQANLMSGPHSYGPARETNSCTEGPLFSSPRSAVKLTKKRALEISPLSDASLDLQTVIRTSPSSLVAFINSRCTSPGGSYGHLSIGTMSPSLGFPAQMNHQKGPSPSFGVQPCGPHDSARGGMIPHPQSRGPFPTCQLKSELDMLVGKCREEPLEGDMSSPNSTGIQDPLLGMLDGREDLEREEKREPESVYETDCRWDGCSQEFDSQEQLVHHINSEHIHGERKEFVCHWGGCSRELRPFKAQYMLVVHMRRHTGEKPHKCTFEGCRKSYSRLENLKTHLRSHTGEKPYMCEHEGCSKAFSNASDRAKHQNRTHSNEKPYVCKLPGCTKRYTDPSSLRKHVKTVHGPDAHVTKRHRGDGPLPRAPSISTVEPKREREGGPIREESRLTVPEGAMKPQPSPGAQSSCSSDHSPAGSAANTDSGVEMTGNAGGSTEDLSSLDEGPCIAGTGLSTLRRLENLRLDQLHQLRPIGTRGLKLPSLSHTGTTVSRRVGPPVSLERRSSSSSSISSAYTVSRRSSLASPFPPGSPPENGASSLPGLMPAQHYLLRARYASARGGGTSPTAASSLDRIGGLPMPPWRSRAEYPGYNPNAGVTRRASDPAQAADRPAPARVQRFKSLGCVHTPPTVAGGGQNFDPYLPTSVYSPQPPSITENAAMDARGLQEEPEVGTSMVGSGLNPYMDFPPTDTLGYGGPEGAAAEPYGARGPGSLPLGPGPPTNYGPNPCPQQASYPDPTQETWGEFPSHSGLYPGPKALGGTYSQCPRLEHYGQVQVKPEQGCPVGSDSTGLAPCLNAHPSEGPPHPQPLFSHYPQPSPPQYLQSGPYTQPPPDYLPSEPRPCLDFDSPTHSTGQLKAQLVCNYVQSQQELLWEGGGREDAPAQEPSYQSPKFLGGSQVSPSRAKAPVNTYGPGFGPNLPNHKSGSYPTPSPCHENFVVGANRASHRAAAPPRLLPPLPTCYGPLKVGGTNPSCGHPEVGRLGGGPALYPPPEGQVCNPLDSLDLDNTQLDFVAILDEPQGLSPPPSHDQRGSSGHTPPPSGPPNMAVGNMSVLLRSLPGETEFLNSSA
Experiment: IP-Western, flag-tagged Gli1S84E transfected into BE3 cells
Experimental: FIGS. 13A-13K. related to FIG. 5. […] FIG. 13A. Luciferase assay of Gli reporter in the stable clones treated by TNFα alone (5 ng/mL) or TNFα plus rapamycin (100 nM). Error bars represent SD (n=3). FIG. 13B. Gli1 immunofluorescence staining in several BE3 stable clones with TNFα treatment. Scale bar=100 μm for original picture and 25 μm for inset. FIG. 13C. The regulation of p-Gli1 by TNFα alone or together with rapamycin (10, 50, and 100 nM) in the BE3 stable clone. FIG. 13D. MTT assay of the various Gli1 stable clones. All cells were counted, and then 3,000 cells were seeded in each well of a 96-well plate. Error bars represent SD (n=3). FIG. 13E. Soft-agar assay of the various Gli1 stable clones. All cells were counted, and then 1,000 cells were mixed with agarose for each well of a 24-well plate. Left, representative microscopic images. Right, quantitation of colony formation. Error bars represent SD (n=3). FIG. 13F. Invasion assay of the various Gli1 stable clones. All cells were counted, and then 1,000 cells were seeded on matrigel in transwells. Left, representative microscopic images from the bottom side of transwell membranes. Right, quantitation of invasive cells. Error bars represent SD (n=3). FIGS. 13G-13I. The assays of MTT (G), soft agar (H), and invasion (I) using the BE3 stable clones treated with TNFα.

B1: SuFu (other, human, UniProt Q9UMX1 1-484, looked up)
chain: MAELRPSGAPGPTAPPAPGPTAPPAFASLFPPGLHAIYGECRRLYPDQPNPLQVTAIVKYWLGGPDPLDYVSMYRNVGSPSANIPEHWHYISFGLSDLYGDNRVHEFTGTDGPSGFGFELTFRLKRETGESAPPTWPAELMQGLARYVFQSENTFCSGDHVSWHSPLDNSESRIQHMLLTEDPQMQPVQTPFGVVTFLQIVGVCTEELHSAQQWNGQGILELLRTVPIAGGPWLITDMRRGETIFEIDPHLQERVDKGIETDGSNLSGVSAKCAWDDLSRPPEDDEDSRSICIGTQPRRLSGKDTEQIRETLRRGLEINSKPVLPPINPQRQNGLAHDRAPSRKDSLESDSSTAIIPHELIRTRQLESVHLKFNQESGALIPLCLRGRLLHGRHFTYKSITGDMAITFVSTGVEGAFATEEHPYAAHGPWLQILLTEEFVEKMLEDLEDLTSPEEFKLPKEYSWPEKKLKVSILPDVVFDSPLH
notes: also called suppressor of fused
binding result: binds
